We go through 21 variants from the RNAGym collection of RNA variant scans (doi:10.1073/pnas.2313332121).

B1: TPR t1 (parent)
chain: GACCAAUCUGCCCUCAGAGCUCGAGAACAUCUUCGGAUGCAGAGGAGGCAGGCUUCGGUGGCGCGAUAGCGCCAACGUCCUCAACCUCCAAUGCAUCCCACCACAUGAUGAUGCCUGAAGAGCCUUGGUUUUUUG

The data set covers variants of B1. The data set is described as follows: polymerase ribozyme fitness, log enrichment relative to wild type (log ratio); higher = more active; in vitro selection for triplet polymerase activity. A digest of the protocol:
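The heterodimeric triplet polymerase ribozyme's subunits were each mutagenized into PCR-built libraries and transcribed. Every library was selected once, in triplicate, by annealing with a biotinylated primer, the partner subunit and triplets, incubating frozen at −7 °C, gel-excising extended constructs, capturing on streptavidin beads and running RT-PCR. Input and output libraries were Illumina-sequenced, with genotypes kept only at ≥10 input reads and ≥1 read per output. Fitness, from inverse-variance-weighted replicate averages, is the base-2 logarithm of genotype enrichment over wild-type enrichment.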
Consider GACCAAUCGGCCCUCAGAGCUCGAGAACAUCUUCGGAUACAGAGGAGGCAGGCUUCGGUGGCGCGAUAGCGCCAACGUCCUCAACUUCCAAUGCAUCCCACCACAUGAUUAUGCCUGAAGAGCCUUGGUUUUUUG [U9G G39A C86U G110U], for which the “polymerase ribozyme fitness (log ratio)” value is -2.18.

On to GACCAAUCGGCCCUCAGAGCUCGAGAACAUCUUCGGAUGCAUAGGAGGCAGGCUUCGGUGGCGCGAUAGCGCCAACGUCCUCAACCUCCAAUGCAUCCCACCACAUGAUGAUGCCUGAAGCGCCUUGGUUUUUUG [U9G G42U A121C], for which the “polymerase ribozyme fitness (log ratio)” value turned out to be 0.979.

As to GACCAAUCGGCCCUCAGAGCUCGAGAACAUCUUCGGAUGCAGAGGAGGCAGGCUUCGGUCGCGCGAUAGCGCCAACGUCCUCAACCUCCAAUGCAUCCCACCACAUGAUGAUGCCAGAAGAGCCUUGGUUUUUUG [U9G G60C U116A], the “polymerase ribozyme fitness (log ratio)” value was -1.45.

In the case of GACCAAUCGGCCCUCAGAGCUCGAGAACAUCUUCGGAUGCAGAGGAGGCAGUCUUCGGUGGCGCGAUAGCGCCAACGUCCUUAACCUCCAAUGCAUCCCACCACAUGAUGAUGCCUGAAGAGCCUUGGUUUUUUG [U9G G52U C82U], the “polymerase ribozyme fitness (log ratio)” value was -1.33.

In the case of GACCAAUCGGCCCUCAGAGCUCGAGAACAUCUUCGGAUGCACAGGAGGCAGGCUUCGGUGGCGCGAUAGCGCCAACGUCCUCAACCUCCAAUGCAUCCCACCGCAUGAUGAUGCCUGAAGAGCAUUGGUUUUUUG [U9G G42C A103G C124A], the “polymerase ribozyme fitness (log ratio)” value was -6.09.

Regarding GACCAAUCGGCCCUCAGAGCUCGAGAACAUCUUCGGAUGCAGAGCAGGCAGGCUUCGGUGGCGCGAUAGCGCCAACGUACUCAACCUCCAAUGCAUCCCACCACAUGAUGAUGCCUGAAGAGCCUUGGUCUUUUG [U9G G45C C79A U130C], the “polymerase ribozyme fitness (log ratio)” value was -2.2.

With GACCAAUCGGCCCUCAGAGCUCGAGAACAUCUUCGGAUGCAGAGGAGGCAGGCUUCGGUGGCGCGAUAGCGCCAACGUCCUCAACCUCCAAUCCAUCCCUCCACAUGAUGAUGCCUGGAGAGCCUUGGUUUUUUG [U9G G93C A100U A118G], the “polymerase ribozyme fitness (log ratio)” value is -1.35.

Take GACCAAUCGGCCCUCAGAGCUCGAGAACAUCUUCGGAUGCAGAGUAGGCAGGCUUCGGUGGCGCGAUAGCGCCCACAUCCUCAACCUCCAAUGCAUCCCACCACAUGAUGACGCCUGAAGAGCCUUGGUUUUUUG [U9G G45U A74C G77A U112C]: the “polymerase ribozyme fitness (log ratio)” value is 0.536.

On to GACCAAUCGGCCCUCAGAGCUCGAGAACAUCUUCGGAUGCAGAGACGGCAGGCUUCGGUGGCGCGAUAGCGCCAACGUCCUCAACCUCCAAUGCAUCCCACCACACGAUGAUGCCUGAAGAGCCUUGGUUUUUUG [U9G G45A A46C U106C], for which the “polymerase ribozyme fitness (log ratio)” value was -0.292.

For the variant GACCAAUCGGCCCUCAGAGCUCGAGAACAUCUUCGGAUGCAGAGGAGGCAGGCUUCGGUGGCGCCAUAGCGCCAACGUCCUCAACCUCCAAUGCAUCCCACCACAUGAUGAUGCCUGAAGUGCCUUGGUUUUUUG [U9G G65C A121U], the “polymerase ribozyme fitness (log ratio)” value was -4.76.

Regarding GACCAAUCGGCCCUCAGAGCUCGAGAACAUCUUCGGAUACAGAGGAGGCAGGCUUCGGUGGCGUGAUAGCGCCAACGUCCUCAACCUCCAAUCGAUCCCACCACAUGAUGAUGCCUGAAGAGCCUUGGUUUUUUG [U9G G39A C64U G93C C94G], the “polymerase ribozyme fitness (log ratio)” value is -4.56.

Turning to GACCAAUCGGCCCUCAGAGCUCGAGAACAUCUUCGGAUGCAGAGGAGGCAGGCUUCGGUGGCGCGAUAGCGCCAACAUCCUCAACCUCCAAUGCAUCCCACCACAUGAUGAUGCCUGAAGAGCCUUGGUUUUUUG [U9G G77A], the “polymerase ribozyme fitness (log ratio)” value stood at 0.17.

GACCAAUCGGCCCUCAGAGCUCGAGAACAUCUUCGGAUGCAGAGGAGGCACGCUUGGGUGGCGCGAUAGCGCCAACGUCGUCAACCUCCAAUGCAUCCCACCACAUGAUGAUGCCUGAUGAGCCUUGGUUUUUUG [U9G G51C C56G C80G A119U]: the “polymerase ribozyme fitness (log ratio)” value is -0.301.

Consider GACCAAUCGGCCCUCAGAGCUCGAGAACAUCUUCGGAUGCAGAGGAGGCAGGCUUCGGUGUCGCGAUAGUGCCAACGUCCUUAACCUCCAAUGCAUCCCACCACAUGAUGAUGCUUGAAGAGACUUGGUUUUUUG [U9G G61U C70U C82U C115U C123A], for which the “polymerase ribozyme fitness (log ratio)” value was -3.33.

Consider GACCAAUCGGCCCUCAGAGCUCGAGAACAUCUUCGGAUGCAGAGGAGGCAGGCUUCGGUGACGCGAUAGCGCCAACGUCAUCAACCUCCAAUGCCUCCCACCACAUGAUUAUGCAUGACGAGCCUUGGUUUUUUG [U9G G61A C80A A95C G110U C115A A119C], for which the “polymerase ribozyme fitness (log ratio)” value is -7.18.

On to GACCAAUCGGCCCUCAGAGCUCGAGAACAUCUUCGGAUGCAGAGGAGGCAUGCUUCGGUGGCCCGAUAGCGCCAACGUCCUCAACCUCCAAUGCAUCCCACCACAUGAUGAUGCCUGAAGAGCCUUGGUUUUUUG [U9G G51U G63C], for which the “polymerase ribozyme fitness (log ratio)” value was -3.1.

For GACCAAUCGGCCCUCAGAGCUCGAGAACAUCUUCGGAUGCAGAGGAGGCAGGCUUCGGUGGCGCCAUAGCGCCAACGUCCUCAACCUCCAAUGCAUCCCACCACAUGAUGAUGCCUGAAGAGCCUUGGUUUUUUG [U9G G65C], the “polymerase ribozyme fitness (log ratio)” value is -5.24.

Take GACCAAUCGGCCCUCAGAGCUCGAGAACAUCUUCGGAUGCAGAGGAGGCAGGCUUCGGUGGCUCGAUAGCGCCAACGUCCUCAACCUCCAAUGCAUCCCACCACAUGAUGAUGCCUGAAGAGCCUUGCUUUUUUG [U9G G63U G128C]: the “polymerase ribozyme fitness (log ratio)” value is -3.23.

On to GACCAAUCGGCCCUCAGAGCUCGAGAACAUCUUCGGAUGCAGAGGAGGCAGGCUUCGGUGACGCGAUAGCGCCAACGUCCUCAACCUCCAAUGCAUUCCCCCACAUGGUGAUGCCUGAAGAGCCUUGGUUUUUUG [U9G G61A C97U A100C A108G], for which the “polymerase ribozyme fitness (log ratio)” value is -2.88.

Regarding GACCAAUCGGCCCUCAGAGCUCGAGAACAUCUUCGGAUGCAGAGGAGGCAAGCUUCGGUAGCGCGAUAGCGCCAACGUCCUCAACCUCCAAUGAAUCCCACCACAUGAUGAUGCCUGAAGAGCCUUGGUUUUUUG [U9G G51A G60A C94A], the “polymerase ribozyme fitness (log ratio)” value is -3.72.

With GACCAAUCGGCCCUCAGAGCUCGAGAACAUCUUCGGAUGCAGAGGAGGCAGGCUUCGGUGGCGCGAUAUCGCCAACGUCCUCAACCUCCAAUGCAUCCCACCACAUGAUGAUGCCUGAAGAGCCUUGGUUUUUUG [U9G G69U], the “polymerase ribozyme fitness (log ratio)” value turned out to be 0.642.
